Test results: PMC6158172, “A bidentate Polycomb Repressive-Deubiquitinase complex is required for efficient activity on nucleosomes” (Nature Communications, 2018)

B1: Calypso^43–404 (wild type), as in the Calypso^43–404–ASX^207–340 complex [Drosophila melanogaster] / itself (parent)
chain: ADGWLELESDPGLFTLLLKDFGCHDVQVEEVYDLQKPIESPYGFIFLFRWIEERRARRKIVETTAEIFVKDEEAISSIFFAQQVVPNSCATHALLSVLLNCNENNLQLGDTLSRLKTHTKGMSPENKGLAIGNTPELACAHNSHAMPQARRRLERTGAGVSSCRFTGEAFHFVSFVPINGQLFELDGLKPYPMNHGGWEDSEDWTDKFRRVMAERLGIATGEQDIRFNLMAVVPDRRIAITHKLKMLRTNQAIVSGTLQKLLKADEQGESGNGDSQRPDTPTTLLEPSAFTARDLQSLLKNLDTEIAINEQHLADENDRRHMFKVDASRRTHNYDKFICTFLSMLAHQGVLGELVSQHLLPS

Variants of: B1
Assay: SEC-MALLS (Calypso–Calypso dimerisation within the Calypso–ASX complex)
Details: with itself; 50 μM; 20 mM HEPES pH 7.5 and 100 mM NaCl; read off a plot

Variant | screen value
ADGWLELESDPGLFTLLLKDFGCHDVQVEEVYDLQKPIESPYGFIFLFRWIEERRARRKIVETTAEIFVKDEEAISSIFFAQQVVPNSCATHALLSVLLNCNENNLQLGDTLSRLKTHTKGMSPENKGLAIGNTPELACAHNSHAMPQARRRLERTGAGVSSCRFTGEAFHFVSFVPINGQLFELDGLKPYPMNHGGWEDSEDWTDKFRRVMAERLGIATGEQDIRFNLMAVVPDRRIAITHKLKRLRTNQAIVSGTLQKLLKADEQGESGNGDSQRPDTPTTLLEPSAFTARDLQSLLKNLDTEIAINEQHLADENDRRHMFKVDASRRTHNYDKFICTFLSMLAHQGVLGELVSQHLLPS [chain 1 M246R] | 77 kDa
